Experimental data taken from patent US20060198894A1, “Stabilized, solid-state polypeptide particles” (priority 2002, published 2006).
Where no end group is shown, it is not given here.

Assays:
Format in all cases: physicochemical
[1] = Stability of solid-state PACAP particles stored at 60° C. for two months, RP-HPLC (recovery / total degradation)
Experimental: (§1) The effect of pH on the stability of PACAP molecules over time was evaluated. In order to make such an evaluation, PACAP raw material was first dissolved in H2O in three different solutions, with the first solution having a pH of 2, the second solution having a pH of 4, and the third solution having a pH of 6. The pH of each solution was adjusted to the desired value using diluted HCl. Each of the three solutions was placed in lyophilization vials, and solid-state PACAP particles were produced from each of the three solutions through the lyophilization process already described herein. Particles from each of the three solutions were then stored for two months at 60° C., and the stability of the PACAP included in the solid-state particles was thereafter evaluated using RP-HPLC and SEC.
(§2) Solid-state PACAP particles were prepared from each of the eight solutions through lyophilization, as has already been described, and solid-state PACAP particles produced from each of the eight solutions were then stored at 60° C. for two months. After exposing the various solid-state PACAP particles to a temperature of 60° C. over two months, the stability of the PACAP included in various particles was evaluated using RP HPLC and SEC processes.
PACAP particles containing histidine buffer (Sigma) and PACAP particles containing histidine buffer in combination with calcium chloride (CaCl2, J T Baker), sucrose and sodium dodecyl sulfate (SDS, Pierce) were prepared and the stabilization of PACAP provided by such particles was evaluated. To prepare the PACAP particles evaluated, six different aqueous solutions were prepared. Each solution included a desired amount of PACAP dissolved therein, and the pH of each of the six solutions prepared was adjusted to 6 by the addition of diluted HCl. The first aqueous solution was prepared without additives (histidine buffer, CaCl2, sucrose, or SDS). The second aqueous solution was prepared with a 10 mM concentration of histidine buffer. The third aqueous solution was formulated with a 10 mM concentration of histidine buffer as well as a 10 mM concentration of CaCl2. The fourth aqueous solution was formulated with a 10 mM concentration of histidine buffer and included sucrose at a 0.5/1 weight ratio (sucrose/PACAP) relative to PACAP. […] The PACAP particles produced from each solution were then stored at 60° C. for two months, and the stability of the PACAP contained within the various different particles was evaluated using RP-HPLC and SEC processes after such storage. […]
To evaluate the stabilizing effect of CaCl2 in PACAP particles prepared at acidic and near neutral pH, four different types of particles were formulated, stored at 60° C. for two months, and then analyzed for PACAP degradation. […]

[2] = Aggregation / dimer formation in solid-state PACAP particles stored at 60° C. for two months, SEC; conditions: for dimer formation: two months of storage at 60° C.
Experimental: as §1, §2
PACAP particles containing histidine buffer (Sigma) and PACAP particles containing histidine buffer in combination with calcium chloride (CaCl2, J T Baker), sucrose and sodium dodecyl sulfate (SDS, Pierce) were prepared and the stabilization of PACAP provided by such particles was evaluated. To prepare the PACAP particles evaluated, six different aqueous solutions were prepared. Each solution included a desired amount of PACAP dissolved therein, and the pH of each of the six solutions prepared was adjusted to 6 by the addition of diluted HCl. The first aqueous solution was prepared without additives (histidine buffer, CaCl2, sucrose, or SDS). The second aqueous solution was prepared with a 10 mM concentration of histidine buffer. The third aqueous solution was formulated with a 10 mM concentration of histidine buffer as well as a 10 mM concentration of CaCl2. The fourth aqueous solution was formulated with a 10 mM concentration of histidine buffer and included sucrose at a 0.5/1 weight ratio (sucrose/PACAP) relative to PACAP. The fifth aqueous solution was prepared with a 10 mM concentration of histidine buffer, a 10 mM concentration of CaCl2, and an amount of sucrose providing a 0.5/1 weight ratio (sucrose/PACAP) relative to PACAP. The sixth aqueous solution was formulated with a 10 mM concentration of histidine buffer and 0.02 wt % SDS. Solid-state PACAP particles were then produced from each of the six solutions using the lyophilization process already described herein. The PACAP particles produced from each solution were then stored at 60° C. for two months, and the stability of the PACAP contained within the various different particles was evaluated using RP-HPLC and SEC processes after such storage. […] In addition, sucrose, CaCl2 and SDS further stabilized the peptide, providing roughly 14 fold to 20 fold decreases in aggregate formation.
To evaluate the stabilizing effect of CaCl2 in PACAP particles prepared at acidic and near neutral pH, four different types of particles were formulated, stored at 60° C. for two months, and then analyzed for PACAP degradation. The four different particle formulations were prepared from four different aqueous solutions. Each of the four solutions included a desired amount of PACAP dissolved therein and the pH of each solution was adjusted to the desired level using diluted HCl. The first aqueous solution was formulated without additives (histidine or CaCl2), and the pH of the first solution was adjusted to 2. The second aqueous solution was formulated with a 10 mM concentration of CaCl2, and the pH of the second solution was adjusted to 2. […]

[3] = Stability of PACAP suspended in suspension vehicles at elevated temperature, RP-HPLC and SEC
Excerpt: Due to the nature of the suspension vehicles used in implantable drug delivery systems, mixing of the suspension formulation bulk and subsequent loading of the suspension formulation into the implantable systems are often conducted at elevated temperatures. To evaluate the stability of PACAP analog (or simply “PACAP”) suspended in various suspension vehicles at elevated temperatures, unprotected, lyophilized PACAP was suspended in four different suspension vehicles (LL/GML/PVP, BA/PVP, EHL/PVP, and PEG/PVP). To suspend the PACAP into the suspension vehicles 3.3 mg PACAP acetate was manually mixed into each of the different suspensions to achieve a PACAP content of approximately 3%. The stability of the PACAP suspension formulations was then evaluated after incubation at 65° C. for four hours.
The PACAP suspensions were then further incubated at 37° C. and 65° C. an additional 17 days. […] (Table 3). […] In addition, other chemical degradation contributed to the loss of lyophilized PACAP.

[4] = Total degradation of lyophilized PACAP with excipients stored at 2-8, 40 and 60° C. up to 3 months, RP-HPLC
Experimental: (§3) The preliminary findings from the processing study led to the evaluation of the stabilization effect of sugar (sucrose) and nonionic surfactant (Tween 80) on PACAP lyophiles and suspensions. In order to carry out the evaluation, samples were prepared with PACAP in 10 mM NH4OAc (pH6.4) at 3 levels of Tween 80 (0, 0.05, 0.2 wt %) and sucrose (0, 0.5/1, 1/1, w/w). A solution of PACAP in 10 mM of histidine (pH 6.4) and sodium succinate (pH 5.6) was also prepared. Each of the PACAP solutions were lyophilized to obtain reconstituted, solid-state PACAP particles, and individual vials were provided 3.3 mg samples of the material reconstituted from each of the solutions, with the samples containing (1) no additive, (2) 0.2 wt % Tween 80, (3) 0.2 wt % Tween 80+0.5:1, w/w sucrose, and (4) 1:1, w/w sucrose. The various 3.3 mg samples were manually mixed with LL/GML/PVP and BA/PVP to provide suspension formulations having about 3% PACAP content, and the suspension formulations were subjected to 4 hours of incubation at 65° C. After the initial incubation period, the various suspension formulations were stored as described below and evaluated by RP-HPLC and SEC.
(§4) Solid-state PACAP particles were prepared via a lyophilization process (FTS Duro stop) from three different polypeptide solutions prepared in NH4OAc buffer at pH6. Each of the three different solutions contained a different amount of sucrose, with the first containing no sucrose, the second containing a weight ratio of sucrose to PACAP of 0.5/1, and the third containing a weight ratio of sucrose to PACAP 1/1. Solid-state PACAP particles prepared from each of the three solutions were stored at control temperatures ranging from 2° C. to 8° C., a temperature approximating physiologic temperature (40° C.), and a temperature exceeding physiologic temperature (60° C.). The stability of the PACAP contained within each group of solid-state PACAP particles was assessed at 24 days and 3 months. To assess PACAP stability within each group of particles, the particles were reconstituted in water and analyzed by reversed-phase RP-HPLC (acetonitrile gradient elution with mobile phase containing 0.1% trifluoroacetic acid, and a UV detection at 214 nm) and size exclusion HPLC (SEC, isocratic elution, 30% acetonitrile mixed with 70% of aqueous solution containing 0.1% trifluoroacetic acid and 200 mM of sodium chloride, and a UV detection at 220 nm).

[5] = Aggregation of lyophilized PACAP and PACAP suspensions with excipients stored at 2-8, 40 and 60° C. up to 3 months, SEC
Experimental: as §3, §4

[6] = Example 2 lyophilized formulations, except samples containing 1:1 w/w sucrose
[7] = lyophilized PACAP, ammonium acetate app. pH 6.4, 40° C. for 3 months (FIG. 1)

For “PACAP analog: synthetic PACAP-R3 agonist analog manufactured by Bayer; 31 amino acid sequence HSDAVFTDNYTRLRKQVAAKKYLQSIKNKRY (SEQ. I.D. NO. 1) (HSDAVFTDNYTRLRKQVAAKKYLQSIKNKRY; ends and bridges not checked)”, the “effect of acidic pH on stability” value ([1]; particles lyophilized at pH 2, 4, 6 (HCl), two months at 60° C. (FIG. 9)) was “greatly improved stability”, the “effect of trehalose and methyl MP on stability” value ([1]; particles prepared at pH2, relative to pH2 without stabilizing sugar, 60° C. for two months) was “additive stability” and the “effect of sucrose on stability” value ([1]; particles prepared at pH2 with sucrose, 60° C. for two months) was “significant destabilizing effect”. For the same substance, the “effect of CaCl2 on stability” value ([1]; particles with 10 mM CaCl2 at both pH 2 and 6, 60° C. for two months) was “further improved the stability”, the dimer formation ([2]; particles at acidic pH with Ca2+/PACAP analog 4/1 molar ratio) was 0.8% and the dimer formation ([2]; particles at acidic pH with trehalose/PACAP analog 0.55/1 w/w) was 0.7%. For the same substance, the “decrease in aggregate formation” value ([2]; particles from pH 6 solution with 10 mM histidine buffer vs no additives, 60° C. for two months) was “roughly 6 fold”, the dimer formation ([2]; particles lyophilized from stabilizing solution of apparent pH 2 (diluted HCl), no excipient) was 1.1% and the “improvement in preventing aggregate formation” value ([2]; particles prepared at pH 6 with sucrose (7.3 molar equivalent), 60° C. for two months) was about 6 fold. The “improvement in preventing aggregate formation” value ([2]; particles prepared at pH 6 with trehalose (7.3 molar equivalent), 60° C. for two months) was about 4 fold, the “stability of PACAP suspensions” value ([3]; further incubated at 37° C. an additional 17 days) was “marginal stability loss” and the “stability of PACAP suspensions” value ([3]; further incubated at 65° C. an additional 17 days) was “relatively more aggressive degradation”. For the same substance, the “stability of PACAP suspension formulations” value ([3]; unprotected lyophilized PACAP, about 3%, in LL/GML/PVP, BA/PVP, EHL/PVP, PEG/PVP, 65° C. for four hours) was “stable”, the “rate of total degradation at 60° C. relative to 40° C.” value [4, 6] was “about 5 times” and the “rate of total degradation (RP HPLC) at 60° C. relative to 40° C.” value ([4]; Example 3, NH4OAc buffer pH6, except particles with PACAP to sucrose weight ratio of 1/1) was “about 5 times”. For the same substance, the “total rate of degradation at 60° C. relative to 40° C.” value ([4]; PACAP analog contained within particles) was “approximately five times higher”, the time stable ([4]; lyophilized PACAP without a stabilizer, at 4° C.) was “at least 3 months” and the estimated total degradation ([4]; lyophilized PACAP, apparent pH 6.4 in ammonium acetate, equal amount of sucrose (w/w), in 6 months at 40° C.) was 8.4%. For the same substance, the “rate of aggregation at 60° C. relative to 40° C.” value [5, 6] was “approximately 10 times”, the “rate of aggregation (SEC) at 60° C. relative to 40° C.” value ([5]; Example 3, NH4OAc buffer pH6, sucrose 0, 0.5/1, 1/1, all formulations tested) was 10 times and the “effect of sucrose on aggregate formation in suspensions” value ([5]; PACAP suspensions in BA/PVP and LL/GML/PVP, 40° C.) was “suppressed aggregate formation”. For the same substance, the “effect of Tween 80 on aggregation” value [5, 7] was “no added effect”, the “effect of sucrose on aggregation” value [5, 7] was “suppressed PACAP aggregation” and the “effect of histidine and sodium succinate on aggregate formation” value ([5]; lyophilized formulations, 40° and 60° C. over 3 months) was “better stabilizers than ammonium acetate”. For the same substance, the “rate of aggregation or dimerization at 60° C. relative to 40° C.” value ([5]; solid-state PACAP particles) was “ten times higher”.
